Results from the supplement of paper PMC7877785.
± gives the uncertainty stated by the source.

Test: self-splicing fitness, log relative to wild type (ln ratio); higher = more splicing; Tetrahymena group I intron in knt gene, E. coli kanamycin selection, DiMSum; sequences stand for … in CUCUCU…GGAGGGAAAAGUUAUCAGGCAUGCACCUGGUAGCUAGUCUUUAAACCAAUAGAUUGCAUCGGUUUAAAAGGCAAGACCGUCAAAUUGCGGGAAAGGGGUCAACAGCCGUUCAGUACCAAGUCUCAGGGGAAACUUUGAGAUGGCCUUGCAAAGGGUAUGGUAAUAAGCUGACGGACAUGGUCCUAACCACGCAGCCAAGUCCUAAGUCAACAGAUCUUCUGUUGAUAUGGAUGCAGUUCACAGACUAAAUGUCGGUCGGGGAAGAUGUAUUCUUCUCAUAAGAUAUAGUCGGACCUCUCCUUAAUGGGAGCUAGCGGAUGAAGUGAUGCAACACUGGAGCCGCUGGGAACUAAUUUGUAUGCGAAAGUAUAUUGAUUAGUUUUGGAGUACUCGUGGUCG
Outline: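 Six replicate transformations of E. coli BL21(DE3) with a pET-22b(+) library were grown overnight at 37°C or 30°C. The library randomised all eight P1ex-region intron nucleotides, the intron lying in the knt kanamycin-resistance gene, and plates were LB agar with or without 25 μg/mL kanamycin plus 100 μg/mL carbenicillin, 50 μM IPTG and 0.2% rhamnose. Pooled colonies were amplicon-sequenced on an Illumina HiSeq 2500, and fitness is the DiMSum error-weighted combination of wild-type-normalised replicate fold changes, kanamycin versus none.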

Sequence	self-splicing fitness (ln) (30 °C)	self-splicing fitness (ln) (37 °C)
CCCUAGCAAUAUUACGCCUG	-3.64 ± 0.23	-3.11 ± 0.23
CCCUAGCAAUAUUACGCGGU	-3.75 ± 0.16	-2.53 ± 0.18
CCCUAGCAAUAUUACGCGUU	-3.65 ± 0.19	-2.72 ± 0.17
CCCUAGCAAUAUUACGCUAC	-2.96 ± 0.34	-1.84 ± 0.43
CCCUAGCAAUAUUACGCUGC	-3.47 ± 0.32	–
CCCUAGCAAUAUUACGGAAG	-4.09 ± 0.22	-2.02 ± 0.19
CCCUAGCAAUAUUACGGACU	-3.48 ± 0.3	-2 ± 0.32
CCCUAGCAAUAUUACGGAUA	–	-2.73 ± 0.26
CCCUAGCAAUAUUACGGCCC	-3.9 ± 0.27	-0.5 ± 0.38
CCCUAGCAAUAUUACGGCUC	-4.27 ± 0.23	-1.75 ± 0.14
CCCUAGCAAUAUUACGGGCG	-1.68 ± 0.089	-0.597 ± 0.1
CCCUAGCAAUAUUACGGGGA	-3.28 ± 0.23	-2.41 ± 0.2
CCCUAGCAAUAUUACGGGUC	-3.26 ± 0.14	-2.65 ± 0.2
CCCUAGCAAUAUUACGGUGA	-2.53 ± 0.11	-1.23 ± 0.094
CCCUAGCAAUAUUACGUAGG	-2.61 ± 0.15	-2.15 ± 0.29
CCCUAGCAAUAUUACGUAUG	-3.75 ± 0.2	-3.63 ± 0.3
CCCUAGCAAUAUUACGUAUU	-3.8 ± 0.17	-2.92 ± 0.18
CCGAAGCAAUAUUACGAACC	-3.42 ± 0.48	–
CCGAAGCAAUAUUACGAAGG	-4.66 ± 0.46	-2.15 ± 0.27
CCGAAGCAAUAUUACGAAUG	-0.621 ± 0.059	-0.208 ± 0.076
CCGAAGCAAUAUUACGACCG	-0.936 ± 0.13	-0.0137 ± 0.17
CCGAAGCAAUAUUACGAGCA	-2.35 ± 0.22	-2.9 ± 0.36
CCGAAGCAAUAUUACGAGCG	-0.283 ± 0.087	0.807 ± 0.1
CCGAAGCAAUAUUACGAUCC	-3.91 ± 0.46	-2.46 ± 0.45
CCGAAGCAAUAUUACGAUGA	-3.16 ± 0.26	-2.24 ± 0.19
CCGAAGCAAUAUUACGAUUU	-1.44 ± 0.16	-2.58 ± 0.24

Sequence	self-splicing fitness (ln) (30 °C)	self-splicing fitness (ln) (37 °C)
CCGAAGCAAUAUUACGCAUC	-4.21 ± 0.34	–
CCGAAGCAAUAUUACGCCCA	-2.41 ± 0.42	–
CCGAAGCAAUAUUACGCCCG	-0.442 ± 0.13	0.42 ± 0.26
CCGAAGCAAUAUUACGCGUG	-3.05 ± 0.14	-2.56 ± 0.13
CCGAAGCAAUAUUACGCGUU	-4.01 ± 0.16	-2.4 ± 0.12
CCGAAGCAAUAUUACGCUCA	-3.65 ± 0.33	-3.47 ± 0.42
CCGAAGCAAUAUUACGGAAC	-2.82 ± 0.28	-2.03 ± 0.26
CCGAAGCAAUAUUACGGACA	–	-1.57 ± 0.2
CCGAAGCAAUAUUACGGAUA	–	-1.18 ± 0.2
CCGAAGCAAUAUUACGGUGG	-4.27 ± 0.24	-1.35 ± 0.11
CCGAAGCAAUAUUACGGUGU	-3.91 ± 0.21	-2.09 ± 0.14
CCGAAGCAAUAUUACGGUUC	-3.74 ± 0.26	-2.66 ± 0.2
CCGAAGCAAUAUUACGGUUU	-4.44 ± 0.25	-2.23 ± 0.17
CCGAAGCAAUAUUACGUAAC	-4.94 ± 0.34	-1.67 ± 0.2
CCGAAGCAAUAUUACGUACU	-3.91 ± 0.27	-2.39 ± 0.19
CCGAAGCAAUAUUACGUCAC	-3.29 ± 0.35	–
CCGAAGCAAUAUUACGUCAU	-4.87 ± 0.42	-3.03 ± 0.33
CCGAAGCAAUAUUACGUGAG	-1 ± 0.065	-0.698 ± 0.084
CCGAAGCAAUAUUACGUUAC	-3.03 ± 0.16	-2.43 ± 0.26
CCGAAGCAAUAUUACGUUAG	-1.97 ± 0.093	-0.908 ± 0.082
CCGAAGCAAUAUUACGUUGG	-3.26 ± 0.19	-2.16 ± 0.19
CCGCAGCAAUAUUACGAAAG	-0.925 ± 0.066	0.125 ± 0.084
CCGCAGCAAUAUUACGAAAU	-3.66 ± 0.32	-3.38 ± 0.33
CCGCAGCAAUAUUACGAACA	-2.19 ± 0.27	–
CCGCAGCAAUAUUACGACCU	-3.36 ± 0.23	-2.63 ± 0.29
CCGCAGCAAUAUUACGACGC	-3.71 ± 0.35	-2.74 ± 0.27

Sequence	self-splicing fitness (ln) (30 °C)	self-splicing fitness (ln) (37 °C)
CCGCAGCAAUAUUACGACUG	-3.17 ± 0.14	-1.71 ± 0.13
CCGCAGCAAUAUUACGAGCC	-3.64 ± 0.23	-2.09 ± 0.2
CCGCAGCAAUAUUACGAGGG	-1.99 ± 0.091	-2.71 ± 0.19
CCGCAGCAAUAUUACGAGUG	-0.193 ± 0.052	-0.212 ± 0.069
CCGCAGCAAUAUUACGAUAA	-2 ± 0.19	-1.2 ± 0.24
CCGCAGCAAUAUUACGAUUU	-3.28 ± 0.14	-2.22 ± 0.15
CCGCAGCAAUAUUACGCAGG	-2.77 ± 0.11	-2.93 ± 0.2
CCGCAGCAAUAUUACGCCGA	-2.35 ± 0.19	-1.42 ± 0.14
CCGCAGCAAUAUUACGGACU	-3.14 ± 0.17	-2.31 ± 0.25
CCGCAGCAAUAUUACGGAUA	-4.16 ± 0.22	-2.91 ± 0.23
CCGCAGCAAUAUUACGGAUC	–	-2.39 ± 0.41
CCGCAGCAAUAUUACGGGAA	-4.03 ± 0.28	-2.71 ± 0.23
CCGCAGCAAUAUUACGGUAA	-3.69 ± 0.27	-1.99 ± 0.18
CCGCAGCAAUAUUACGGUCG	-0.439 ± 0.053	0.0144 ± 0.066
CCGCAGCAAUAUUACGUAAC	-3.86 ± 0.3	-2.7 ± 0.29
CCGCAGCAAUAUUACGUACG	-0.247 ± 0.058	0.254 ± 0.069
CCGCAGCAAUAUUACGUAUC	-4.05 ± 0.28	-1.91 ± 0.2
CCGCAGCAAUAUUACGUCGU	-4.02 ± 0.17	-2.79 ± 0.15
CCGCAGCAAUAUUACGUGUC	-3.88 ± 0.2	-2.34 ± 0.14
CCGGAGCAAUAUUACGAACA	-2.82 ± 0.41	-2.9 ± 0.32
CCGGAGCAAUAUUACGACAG	-0.593 ± 0.13	-0.569 ± 0.14
CCGGAGCAAUAUUACGACAU	-3.816 ± 0.032	-3.02 ± 0.045
CCGGAGCAAUAUUACGACGA	-0.828 ± 0.23	-1.07 ± 0.24
CCGGAGCAAUAUUACGAGAG	-2.13 ± 0.22	-2.33 ± 0.22
CCGGAGCAAUAUUACGAUGA	-2.7 ± 0.23	-1.37 ± 0.23
CCGGAGCAAUAUUACGCAGU	-3.74 ± 0.28	-2.13 ± 0.25

Sequence	self-splicing fitness (ln) (30 °C)	self-splicing fitness (ln) (37 °C)
CCGGAGCAAUAUUACGCGAU	-3.82 ± 0.27	-2.62 ± 0.33
CCGGAGCAAUAUUACGCGGU	-3.21 ± 0.16	-2.96 ± 0.23
CCGGAGCAAUAUUACGCUCG	-3.16 ± 0.28	–
CCGGAGCAAUAUUACGGACC	-2.12 ± 0.4	-1.64 ± 0.45
CCGGAGCAAUAUUACGGAUC	-2.42 ± 0.31	–
CCGGAGCAAUAUUACGGCGC	–	-0.565 ± 0.49
CCGGAGCAAUAUUACGGGUC	-3.5 ± 0.27	-2.77 ± 0.35
CCGGAGCAAUAUUACGGUCG	-1.22 ± 0.097	-0.072 ± 0.13
CCGGAGCAAUAUUACGUCUC	-3.22 ± 0.31	-2.69 ± 0.39
CCGGAGCAAUAUUACGUUGA	–	-2.61 ± 0.36
CCGGAGCAAUAUUACGUUGC	-2.35 ± 0.32	–
CCGUAGCAAUAUUACGACAU	-3.773 ± 0.027	-2.94 ± 0.042
CCGUAGCAAUAUUACGACUG	-0.0597 ± 0.12	-0.95 ± 0.15
CCGUAGCAAUAUUACGAGUA	–	-2.04 ± 0.22
CCGUAGCAAUAUUACGAGUG	-1.07 ± 0.069	-0.807 ± 0.083
CCGUAGCAAUAUUACGAUAA	-4.17 ± 0.39	-1.99 ± 0.28
CCGUAGCAAUAUUACGCAAA	–	-2.24 ± 0.25
CCGUAGCAAUAUUACGCCUG	-0.012 ± 0.085	-0.0205 ± 0.084
CCGUAGCAAUAUUACGCGGU	-3.13 ± 0.27	-2.38 ± 0.3
CCGUAGCAAUAUUACGCUCG	-1.1 ± 0.2	-0.457 ± 0.23
CCGUAGCAAUAUUACGGCAA	-3.49 ± 0.43	-2.42 ± 0.42
CCGUAGCAAUAUUACGGCAC	-3.83 ± 0.42	-2.14 ± 0.26
CCGUAGCAAUAUUACGGGAA	–	-2.04 ± 0.31
